In the supplement of paper PMC10724198:
± gives the standard deviation of the averaged measurements.

Each sequence was assayed on Saccharomyces cerevisiae (assay: protein stability index of tFT-peptide fusion (C-terminal peptide) (PSI (0-1 scale)); higher = more stable (slower turnover)). Details: genetic background: das1 deletion; temperature: 30 C.
Procedure: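 MPS profiling in S. cerevisiae of the yeast C-terminome library: the last 12 aa of each annotated ORF are fused to the C-terminus of a sfGFP-mCherry timer, after a GGGS linker. Cells are FACS-sorted into 8 mCherry/sfGFP bins and deep-sequenced. PSI runs from 0 (unstable) to 1 (stable); wild type and das1Δ backgrounds, two technical replicates each.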
For EEFSSGDYSMDY [RIE1 C-terminal 12 aa], the protein stability index was 0.7024 ± 0.006.
In the case of EEMIRSSSLYDE [ACA1 C-terminal 12 aa], the protein stability index is reported as 0.7312 ± 0.0059.
EENENDCDSEIQ [RTS1 C-terminal 12 aa] was tested, and the protein stability index was 0.7103 ± 0.0013.
EGVRNRRKALKK [ARO3 C-terminal 12 aa] showed a protein stability index of 0.684 ± 0.027.
In the case of EGVSIIESTFIN [YLR225C C-terminal 12 aa], the protein stability index is reported as 0.693 ± 0.012.
EHCPGVNEDDHK [CMG1 C-terminal 12 aa] gave a protein stability index of 0.703 ± 0.011.
In the case of EIKKIYQNEKKI [DPC7 C-terminal 12 aa], the protein stability index is reported as 0.726 ± 0.044.
EILSMPDLSKYQ [SDH5 C-terminal 12 aa] gave a protein stability index of 0.6922 ± 0.0032.
EINNNLGVRLVD [DMA1 C-terminal 12 aa] was tested, and the protein stability index was 0.711 ± 0.012.
EIRNMVINSTKD [BFA1 C-terminal 12 aa] was tested, and the protein stability index was 0.713 ± 0.008.
EKDELDNIEVSK [QCR7 C-terminal 12 aa] gave a protein stability index of 0.696 ± 0.0052.
With EKFLGKKKTKTD [GPI16 C-terminal 12 aa] the protein stability index was 0.701 ± 0.06.
With EKKIATRGAFAC [MCO32 C-terminal 12 aa] the protein stability index was 0.707 ± 0.01.
With EKQYVKILDDTH [CSF1 C-terminal 12 aa] the protein stability index was 0.716 ± 0.011.
EKRFPEVMMLEK [FET4 C-terminal 12 aa] gave a protein stability index of 0.703 ± 0.026.
For EKVNEILRSTEK [GCD14 C-terminal 12 aa], the protein stability index was 0.69 ± 0.0098.
With EKWKINKKETVE [MOD5 C-terminal 12 aa] the protein stability index was 0.697 ± 0.03.
Sequence ELAYKSFYALLD [VPS28 C-terminal 12 aa] has a protein stability index of 0.691 ± 0.019.
Work on ELENEHVPWGKK [HNM1 C-terminal 12 aa] yielded a protein stability index of 0.714 ± 0.032.
With ELIISKREIEKE [GEA1 C-terminal 12 aa] the protein stability index was 0.724 ± 0.022.
ELKRSGKLTRSV [TRM7 C-terminal 12 aa] gave a protein stability index of 0.699 ± 0.0086.
In the case of ELLYLIIAGLHI [FYV5 C-terminal 12 aa], the protein stability index is reported as 0.6959 ± 0.0029.
ELRERLLRPSKK [YPL245W C-terminal 12 aa] gave a protein stability index of 0.7246 ± 0.0023.
Sequence ELTKQHGNKDSN [RTK1 C-terminal 12 aa] has a protein stability index of 0.7 ± 0.025.
With ENDDHLYIFGRN [TIM18 C-terminal 12 aa] the protein stability index was 0.743 ± 0.033.
With ENVEEDKEVHTN [PBI2 C-terminal 12 aa] the protein stability index was 0.675 ± 0.036.
EPSLRGHLIFVL [YBR300C C-terminal 12 aa] gave a protein stability index of 0.515 ± 0.0098.
With EQAAKYIEYLNL [RAD10 C-terminal 12 aa] the protein stability index was 0.817 ± 0.019.
EQEVIFTDLTAY [ECM32 C-terminal 12 aa] showed a protein stability index of 0.742 ± 0.015.
Sequence EQHNVLDTKKNE [SPC2 C-terminal 12 aa] has a protein stability index of 0.687 ± 0.037.
In the case of ERDGYYYLKRSS [VHT1 C-terminal 12 aa], the protein stability index is reported as 0.715 ± 0.019.
EREVNPSARSLG [YLR184W C-terminal 12 aa] was tested, and the protein stability index was 0.694 ± 0.028.
Sequence ESKKTKGEELTL [ARG1 C-terminal 12 aa] has a protein stability index of 0.6793 ± 0.0016.
Work on ESLSNEAALKAN [RPO31 C-terminal 12 aa] yielded a protein stability index of 0.676 ± 0.027.
Work on ESPTEDSVPHAE [CSA1 C-terminal 12 aa] yielded a protein stability index of 0.709 ± 0.018.
ESSARRDRKEHI [TMA23 C-terminal 12 aa] showed a protein stability index of 0.679 ± 0.035.
ETDSESEVESIM [SYG1 C-terminal 12 aa] was tested, and the protein stability index was 0.697 ± 0.036.
Sequence EVKVDKVVYEKE [VPS29 C-terminal 12 aa] has a protein stability index of 0.683 ± 0.067.
EVSTEDTVHDEL [EUG1 C-terminal 12 aa] was tested, and the protein stability index was 0.675 ± 0.0097.
For EYLQSMKTSINR [SFB2 C-terminal 12 aa], the protein stability index was 0.69 ± 0.024.
FARFITAIFHHI [MKC7 C-terminal 12 aa] gave a protein stability index of 0.73 ± 0.019.
In the case of FDALMNNDGDSD [TIF4632 C-terminal 12 aa], the protein stability index is reported as 0.68 ± 0.016.
FDDSSSVSSKSD [GPC1 C-terminal 12 aa] gave a protein stability index of 0.717 ± 0.014.
For FDRVRLLVDKIT [HIR3 C-terminal 12 aa], the protein stability index was 0.683 ± 0.0076.
With FDSNVSVAVDER [SET5 C-terminal 12 aa] the protein stability index was 0.699 ± 0.022.
Sequence FFLEECHRIGSK [HEM12 C-terminal 12 aa] has a protein stability index of 0.726 ± 0.015.
Sequence FGGVRSPKMRRL [MRPS18 C-terminal 12 aa] has a protein stability index of 0.72 ± 0.017.
FGSNVNQQFNFN [SRP1 C-terminal 12 aa] gave a protein stability index of 0.723 ± 0.0085.
In the case of FHHMLIFIILKL [PRM2 C-terminal 12 aa], the protein stability index is reported as 0.203 ± 0.013.
Work on FIVAEYIQQKKV [SRB4 C-terminal 12 aa] yielded a protein stability index of 0.694 ± 0.018.
FKMCETEMQPIK [YGR201C C-terminal 12 aa] gave a protein stability index of 0.7043 ± 0.0065.
FLDDVLNGREII [YNL058C C-terminal 12 aa] showed a protein stability index of 0.708 ± 0.011.
With FNNILTKEMQKI [CLD1 C-terminal 12 aa] the protein stability index was 0.701 ± 0.031.
In the case of FNVTKKSLTNHS [CDS1 C-terminal 12 aa], the protein stability index is reported as 0.6978 ± 0.0048.
Sequence FPVKSSPNAHTA [YLR334C C-terminal 12 aa] has a protein stability index of 0.707 ± 0.018.
For FPWSHGTCIRGA [YOR376W C-terminal 12 aa], the protein stability index was 0.696 ± 0.013.
With FQREQVAKGGLL [CHL4 C-terminal 12 aa] the protein stability index was 0.717 ± 0.016.
With FRRRLGDRFKKD [MRX7 C-terminal 12 aa] the protein stability index was 0.6895 ± 0.0044.
FSYIRSKQMQQK [MNE1 C-terminal 12 aa] was tested, and the protein stability index was 0.746 ± 0.031.
In the case of FTNALKNMYFSA [YJR037W C-terminal 12 aa], the protein stability index is reported as 0.709 ± 0.0094.
With FVYERMKWNFGI [LEU5 C-terminal 12 aa] the protein stability index was 0.7059 ± 0.0044.
Sequence FWHEVVVFPIPN [YDR015C C-terminal 12 aa] has a protein stability index of 0.717 ± 0.017.
GAGVVAAAAMLL [TIR1 C-terminal 12 aa] showed a protein stability index of 0.7182 ± 0.0061.
GAGWSGFKKVFK [GYL1 C-terminal 12 aa] gave a protein stability index of 0.692 ± 0.013.
GAHDDMDNGDDW [LAS17 C-terminal 12 aa] gave a protein stability index of 0.689 ± 0.01.
GAIYVLQWANPT [YBR287W C-terminal 12 aa] showed a protein stability index of 0.667 ± 0.025.
Work on GATEKRKCAKPF [CSL4 C-terminal 12 aa] yielded a protein stability index of 0.674 ± 0.033.
GDDDIDDDDDMI [TVP15 C-terminal 12 aa] gave a protein stability index of 0.691 ± 0.023.
In the case of GEDEENTVDSQY [YOL131W C-terminal 12 aa], the protein stability index is reported as 0.688 ± 0.015.
Work on “GEDVLEGGCLLI [YIR023C-A C-terminal 12 aa]” yielded a protein stability index of 0.708 ± 0.051.
For GELSVDEKKKIY [ERV29 C-terminal 12 aa], the protein stability index was 0.6932 ± 0.00077.
Sequence GFADLDNFMSSL [HAA1 C-terminal 12 aa] has a protein stability index of 0.686 ± 0.039.
Work on GGFLSFGGGYDE [AIM25 C-terminal 12 aa] yielded a protein stability index of 0.712 ± 0.034.
GGFSTEFNSCDT [MLF3 C-terminal 12 aa] showed a protein stability index of 0.719 ± 0.019.
GGGASSIVIEKI [ERG10 C-terminal 12 aa] showed a protein stability index of 0.697 ± 0.035.
With GGQNSPGDMAVA [YDL199C C-terminal 12 aa] the protein stability index was 0.692 ± 0.011.
In the case of GHNDGDINVWTL [CAF4 C-terminal 12 aa], the protein stability index is reported as 0.7185 ± 0.0052.
Work on GIDLNSIKWSGH [NFS1 C-terminal 12 aa] yielded a protein stability index of 0.718 ± 0.012.
GINAGEIEIPEN [RPL12A C-terminal 12 aa] gave a protein stability index of 0.692 ± 0.0082.
GIPEEFKEFTEV [MND1 C-terminal 12 aa] gave a protein stability index of 0.7022 ± 0.0026.
Sequence GIPNLLLPPHLV [TRM112 C-terminal 12 aa] has a protein stability index of 0.707 ± 0.014.
In the case of GIVPGDCLQEYD [FUS1 C-terminal 12 aa], the protein stability index is reported as 0.702 ± 0.0059.
